Experimental data published in article PMC11869524, “A leucine responsive small RNA AbcR200 regulates expression of the lactate utilization (lut) operon in Acinetobacter baumannii DS002” (The Journal of Biological Chemistry, 2025).
Values joined by “and” are separate entries in the source; they are usually repeats but may differ in a detail not shown here. Equal entries are not always repeated.

Experiments:
[1] = molecular target: the molecule itself; test: cross-linking; 23 uM purified AbLrp^C6His dialyzed against 20 mM Hepes, 150 mM NaCl, pH 8.0; DSS (3 mM), 30 min at room temperature, quenched with Tris-Cl; SDS-PAGE (12.5%) and Western blot with anti-His antibodies; without leucine, with or without DNA (300 ng) containing the Lrp binding site
[2] = molecular target: the molecule itself; test: cross-linking; 23 uM purified AbLrp^C6His dialyzed against 20 mM Hepes, 150 mM NaCl, pH 8.0; DSS (3 mM), 30 min at room temperature, quenched with Tris-Cl; SDS-PAGE (12.5%) and Western blot with anti-His antibodies; with leucine (5 mM), with or without DNA (300 ng) containing the Lrp binding site

B1: A. baumannii DS002 Lrp protein (AbLrp^C6His), leucine responsive regulatory protein (natural protein, Acinetobacter baumannii DS002, UniProt V5VJ98 1-155, looked up)
chain: MRPLDRIDRMILDILQREGRIAISELASRVNLSTTPCSERVKRLERDGIIMGYYARLNPAYVDRNLLVFLEIKLSAKSGDVFDQVARDLVEIPEVLECHLISGEFDYLVKARLKEMSAYRRLLGDLLKKLPASASSHSYVVMEEVKETLYLDVSK
notes: Leucine responsive regulatory protein (Lrp) of Acinetobacter baumannii DS002; lrp gene amplified from chromosomal DNA with primers HS36 FP/HS36 RP and cloned in pET23b as NdeI and XhoI fragment (pHS10); not shown: His6, C-terminal, kept
B1 was tested, and the “stoichiometry N” value [1] was 4 and the “stoichiometry N” value [2] was 2 and 3.
